pIC50: −log10 of the molar value. Where a SMILES comes first, the peptide text is derived from it. [ ]: non-standard residue; d: D form. The star is where a group is joined. Dolaproine = CO[C@@H]([C@@H]1CCCN1)[C@@H](C)C(=O)O; Dil = CC[C@H](C)[C@H](NC)[C@@H](CC(=O)O)OC; X1 = C[C@@H](N*)[C@@H](O)c1ccccc1; NMeV = CN[C@H](C(=O)O)C(C)C
Assays:
[1] = test system: CD30-positive Karpas 299 cell line; assay: In vitro cell viability assay (CellTiter Glo) in Karpas 299; type: cell-based, human; settings: Karpas 299 cells, 72 h incubation, conjugates DAR 4
Description: Purified brentuximab drug conjugates 10 and 11 with a drug to antibody ratio (DAR) of four as described in Example 6, were evaluated in vitro by measuring the inhibitory effect on cell growth of (CD30)-positive cell line Karpas 299 using the method described below.
Loss of tumour cell viability following treatment with cytotoxic drugs or ADCs in vitro can be measured by growing cell lines in the presence of increasing concentrations of drugs or ADCs and quantifying the loss of proliferation or metabolic activity using CellTiter Glo® Luminescence reagent (Promega Corp. Technical Bulletin TB288; Lewis Phillips G. D, Cancer Res 2008; 68:9280-9290). […]
The human T cell lymphoma cell line Karpas 299 was obtained from Dr Abraham Karpas at the University of Cambridge. […] CD30-positive Karpas 299 were counted using a Neubauer haemocytometer and adjusted to a cell density of 5×10^4/mL. […]
The cell viability assay was carried out using the Cell-Titer Glo® Luminescence reagent, as described by the manufacturer's instructions, (Promega Corp. Technical Bulletin TB288; Lewis Phillips G. D, Cancer Res 2008; 68:9280-9290). […] Luminescence was recorded using a plate reader (e.g. MD Spectramax M3 plate reader), and data subsequently analysed using a four parameter non-linear regression model. […]

[2] = In vivo pharmacokinetics in rats, average DAR by CD30 affinity capture and HIC; design: species or system Sprague-Dawley rats; settings: single dose 7 mg/kg IV, period of 850 h
Description: (§1) Brentuximab conjugate 10 was used in this study as the ADC with a pendant PEG group. Brentuximab conjugate 11 was used as a comparator with a non-pendant PEG group.
(§2) In vivo pharmacokinetics in rats. Sprague-Dawley rats (3 rats per group) with an average weight of 200 g were treated with either 10, 11 or Adcetris®, via the tail vein (IV, bolus) at a single dose of 7 mg/kg. Serial sampling of 100 μL blood was performed before dosing and subsequently at 30 min, 24 h, 48 h, 7 d, 14 d and 35 d post-dosing respectively. Plasma was prepared from fresh blood samples and frozen at −80° C. until analysis.
CD30 affinity capture for average DAR determination Affinity capture was performed using streptavidin coated magnetic beads (Dynabeads-Streptavidin T1, Life Technologies). […] 500 1AL of the plasma sample in PBS was added to the CD30-coated beads and incubated overnight at 4° C. and finally washed using PBS. Captured antibodies were eluted using acidic elution buffer for 5 minutes at 4° C. […] Eluted samples were further mixed with HIC loading buffer and analysed using hydrophobic interaction chromatography with UV detection (HIC-UV).
Hydrophobic interaction chromatography for average DAR determination. Affinity captured ADCs were analysed using hydrophobic interaction chromatography in order to determine the average drug to antibody ratio (DAR). […]

[3] = In vivo pharmacokinetics in rats, total (anti-CD30 antibody) ELISA; design: species or system Sprague-Dawley rats; settings: single dose 7 mg/kg IV, period of 850 h
Description: as §1, §2
Total (anti-CD30 antibody) ELISA. Total brentuximab antibody content from plasma samples was quantified using ELISA technology. Briefly, Maxisorp™ 96 well plates (Nunc/Fisher) were coated with recombinant human CD30, (Sino Biological Inc, 2.5 μg/mL in diluent) and incubated at 4° C. overnight. Plasma samples were diluted to ensure that the unknown ADCs fell within the linear range of the sigmoidal standard calibration curve. […]
IgG, (Promega) was added to the plate and the samples were incubated for 1 hour at room temperature on a shaker at 350 rpm. […] The assay was stopped with 100 μL of 0.5 M H2SO4 and read at UV λ=[…] using the plate reader. Data were plotted and evaluated in GraphPad Prism 5 and Microsoft Excel.

| Compound | pIC50 [1] | Rate of drug loss from the conjugate (average DAR) [2] | Rate of clearance from the circulation (total antibody) [3] |
| --- | --- | --- | --- |
| CC[C@H](C)[C@@H]([C@@H](CC(=O)N1CCC[C@H]1[C@H](OC)[C@@H](C)C(=O)N[C@H](C)[C@@H](O)c1ccccc1)OC)N(C)C(=O)[C@@H](NC(=O)[C@@H](NC)C(C)C)C(C)C [MMAE] (H-[NMeV]V[Dil][Dolaproine]-X1) | 9.98 | – | – |
| Adcetris® | – | much faster rate of drug dissociation | cleared more quickly |

— patent US20170290925A1, “Conjugates And Conjugating Reagents” (priority 2014, published 2017)
